# According to PMC4580526 (Journal of bone and mineral research : the official journal …, 2015):
# What was measured:
# [1] = molecular target: PTH receptor type-1 (PTH1R), wild-type human (human) (UniProt Q03431)
# [2] = molecular target: PTH receptor type-1 (PTH1R), wild-type human (human) (UniProt Q03431); experiment: radioligand binding
# COS-7 cells = experiment: Secretion of PTH into conditioned medium of transfected COS-7 cells; type: cell-based; details: for PTH level in conditioned medium, PTH(1-84) assay / PTH level in conditioned medium, ntPTH assay: 48 hours after transfection, mean ± SEM
# Sequence of UniProt Q03431 (Q03431 27-593): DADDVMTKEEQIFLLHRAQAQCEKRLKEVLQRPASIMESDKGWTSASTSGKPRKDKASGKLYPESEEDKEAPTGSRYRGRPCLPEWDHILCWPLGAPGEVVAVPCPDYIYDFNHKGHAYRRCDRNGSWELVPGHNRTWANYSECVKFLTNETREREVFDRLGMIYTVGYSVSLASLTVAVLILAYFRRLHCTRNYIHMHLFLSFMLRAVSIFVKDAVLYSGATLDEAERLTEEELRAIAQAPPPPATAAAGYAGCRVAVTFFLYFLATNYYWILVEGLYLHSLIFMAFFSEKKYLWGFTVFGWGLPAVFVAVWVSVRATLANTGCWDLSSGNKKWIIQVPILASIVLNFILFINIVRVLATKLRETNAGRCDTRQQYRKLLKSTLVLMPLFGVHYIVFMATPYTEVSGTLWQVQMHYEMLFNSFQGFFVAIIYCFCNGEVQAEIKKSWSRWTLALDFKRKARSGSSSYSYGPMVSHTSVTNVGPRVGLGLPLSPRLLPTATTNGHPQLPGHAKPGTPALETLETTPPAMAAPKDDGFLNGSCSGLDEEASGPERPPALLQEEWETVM
Molecule,"PLC/IP signaling EC50, IP1 in GP-2.3 cells (Cisbio IP1 assay kit) [1] [nM]","cAMP signaling EC50, Glosensor luminescence in SGS-72 cells (SaOS-2-derived) [1] [nM]",IC50 [2] [nM],"PTH level in conditioned medium, PTH(1-84) assay (COS-7 cells) [pg/mL]","PTH level in conditioned medium, ntPTH assay (COS-7 cells) [pg/mL]",secretion of mutant hormone into the medium (COS-7 cells; transfected COS-7 cells)
[Cys25]PTH(1-34) (peptide),265,0.27,12.3,–,–,–
"[Cys25]PTH(1-84): mutant hormone with arginine-to-cysteine mutation at position 25 of mature PTH(1-84) (protein, UniProt P01270 32-115, looked up, variant R25C, Parathyroid hormone) Parathyroid hormone: SVSEIQLMHNLGKHLNSMERVEWLCKKLQDVHNFVALGAPLAPRDAGSQRPRKKEDNVLVESHEKSLGEADKADVNVLTKAKSQ",–,–,–,1812 ± 175,30.9 ± 23,efficiently secreted into the medium
"PTH(1-84): wild-type hormone expressed from plasmid encoding wild-type preproPTH in COS-7 cells (protein, UniProt P01270 32-115, looked up, Parathyroid hormone) Parathyroid hormone: SVSEIQLMHNLGKHLNSMERVEWLRKKLQDVHNFVALGAPLAPRDAGSQRPRKKEDNVLVESHEKSLGEADKADVNVLTKAKSQ",–,–,–,1812 ± 94,2285 ± 277,–
